Results on 4 molecules are retold here after publication PMC7289602, “Measuring ligand-cell surface receptor affinities with axial line-scanning fluorescence correlation spectroscopy” (eLife, 2020).

The term koff denotes the rate constant with which the complex falls apart. One may read the kon as the rate constant with which the complex forms.

The target of test [1] is LRP6-mCherry, stably expressed in NCI-H1703 cells (human) (UniProt O75581). The experiment in a line: dual-color axial line-scanning fluorescence cross-correlation spectroscopy (axial lsFCS); two receptors in the plasma membrane of live NCI-H1703 cells stably expressing LRP6-mCherry and transiently xKremen2-eGFP; fractions that co-diffuse from the ratios of cross- and autocorrelation amplitudes.
LRP6-mCherry, stably expressed in NCI-H1703 cells (human), sequence (O75581 20-1613): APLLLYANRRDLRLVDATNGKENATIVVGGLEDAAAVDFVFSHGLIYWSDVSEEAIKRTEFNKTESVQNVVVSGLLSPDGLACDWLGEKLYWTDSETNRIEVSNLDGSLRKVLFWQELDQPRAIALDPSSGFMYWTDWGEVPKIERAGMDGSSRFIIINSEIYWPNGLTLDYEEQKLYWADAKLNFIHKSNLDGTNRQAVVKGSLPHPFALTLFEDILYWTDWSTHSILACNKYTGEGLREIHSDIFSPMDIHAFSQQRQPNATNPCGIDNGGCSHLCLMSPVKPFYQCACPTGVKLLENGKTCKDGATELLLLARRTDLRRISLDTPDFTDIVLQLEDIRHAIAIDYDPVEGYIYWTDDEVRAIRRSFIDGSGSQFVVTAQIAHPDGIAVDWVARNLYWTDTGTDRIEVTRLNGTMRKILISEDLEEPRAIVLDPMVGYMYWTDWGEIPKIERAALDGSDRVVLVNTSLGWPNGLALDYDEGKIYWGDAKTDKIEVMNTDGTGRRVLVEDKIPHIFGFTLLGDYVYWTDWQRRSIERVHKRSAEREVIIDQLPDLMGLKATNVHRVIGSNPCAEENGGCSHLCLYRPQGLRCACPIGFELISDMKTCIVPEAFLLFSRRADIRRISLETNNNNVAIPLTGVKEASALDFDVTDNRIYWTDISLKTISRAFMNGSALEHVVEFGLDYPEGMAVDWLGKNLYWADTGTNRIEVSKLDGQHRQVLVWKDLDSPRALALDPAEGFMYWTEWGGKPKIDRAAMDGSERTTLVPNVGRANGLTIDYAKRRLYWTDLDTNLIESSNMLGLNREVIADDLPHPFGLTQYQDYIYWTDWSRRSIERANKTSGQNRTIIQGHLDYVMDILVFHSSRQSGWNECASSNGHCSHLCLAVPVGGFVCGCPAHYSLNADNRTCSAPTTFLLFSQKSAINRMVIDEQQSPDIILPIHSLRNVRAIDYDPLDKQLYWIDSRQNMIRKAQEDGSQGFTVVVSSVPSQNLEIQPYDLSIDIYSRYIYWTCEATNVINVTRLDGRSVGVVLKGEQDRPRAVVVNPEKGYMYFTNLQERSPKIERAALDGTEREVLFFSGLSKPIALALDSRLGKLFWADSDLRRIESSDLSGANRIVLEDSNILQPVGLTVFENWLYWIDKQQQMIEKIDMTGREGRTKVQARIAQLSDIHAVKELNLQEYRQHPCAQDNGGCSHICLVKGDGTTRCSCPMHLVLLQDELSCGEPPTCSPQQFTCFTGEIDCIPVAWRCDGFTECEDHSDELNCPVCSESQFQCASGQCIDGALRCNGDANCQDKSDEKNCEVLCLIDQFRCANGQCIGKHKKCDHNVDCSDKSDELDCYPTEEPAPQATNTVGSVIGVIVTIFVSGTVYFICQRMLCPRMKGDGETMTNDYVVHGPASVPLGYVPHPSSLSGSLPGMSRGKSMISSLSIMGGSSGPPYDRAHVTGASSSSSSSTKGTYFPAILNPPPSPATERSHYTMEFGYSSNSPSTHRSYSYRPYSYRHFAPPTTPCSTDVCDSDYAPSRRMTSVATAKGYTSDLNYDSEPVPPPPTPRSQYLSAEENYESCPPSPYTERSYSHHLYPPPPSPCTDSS

Test [2] addresses T1, LRP6-mCherry, stably expressed in NCI-H1703 cells (human, UniProt O75581 20-1613).
T1 construct: lipoprotein-receptor related protein 6 (LRP6), human; the ORF of the hLRP6-mCherry fusion inserted into pEF1a-IRES-Neo; Same fusion ORF as m4 and m5; receptor density 45 ± 23 per µm^2; also called hLRP6-mCherry; exogenous LRP6-mCherry; source: NCI-H1703, stably transfected clonal line (pEF1a-hLRP6-mCherry-IRES-Neo, G418 selection), on live cells; not shown: mCherry, C-terminal, kept
The experiment in a line: dual-color axial line-scanning fluorescence cross-correlation spectroscopy (axial lsFCS); live NCI-H1703 cells stably expressing LRP6-mCherry, ligand in conditioned medium at varied concentrations, 37°C, 5% CO2, 60 s scans, with background and photobleaching correction, fit of Γ(CL) with Equation 5. The note with it: partners not purified.

Test [3] concerns the target T2, endogenously tagged LRP6-tdTomato in CRISPR/Cas9 edited NCI-H1703 cells (human (endogenous in NCI-H1703), UniProt O75581 20-1613).
T2 construct: lipoprotein-receptor related protein 6 (LRP6), human, expressed from the endogenous locus of NCI-H1703 cells; Untagged LRP6 from the unedited allele is also present; receptor density 21 ± 15 per µm^2; source: NCI-H1703, CRISPR/Cas9 edited at the endogenous LRP6 locus (exon 23), heterozygous clone, on live cells; not shown: tdTomato (after the linker AS from the NheI site), C-terminal, kept
The test can be described thus: dual-color axial line-scanning fluorescence cross-correlation spectroscopy (axial lsFCS); live CRISPR/Cas9 edited NCI-H1703 cells with endogenously tagged LRP6, ligand in conditioned medium at varied concentrations, 37°C, 5% CO2, 60 s scans, fit of Γ(CL) with Equation 5. The conditions noted are these: partners not purified.

Test [4] concerns the target T1, LRP6-mCherry, stably expressed in …. The test can be described thus: dual-color axial line-scanning fluorescence cross-correlation spectroscopy (axial lsFCS); live NCI-H1703 cells stably expressing LRP6-mCherry, ligand in conditioned medium at varied concentrations, 37°C, 5% CO2, 60 s scans, with background and photobleaching correction, fit of Γ(CL) with Equation 5. The conditions noted are these: partners not purified. The source holds these as a separate data set.

The target of test [5] is xKremen2-mCherry co-expressed with unlabeled LRP6 (Xenopus laevis | human) (UniProt O75581). The experiment in a line: dual-color axial line-scanning fluorescence cross-correlation spectroscopy (axial lsFCS); live NCI-H1703 cells transiently expressing the receptor (xKremen2-mCherry without or with unlabeled LRP6; apparent affinity with LRP6), ligand in conditioned medium at varied concentrations, 37°C, 5% CO2, 60 s scans, fit of Γ(CL) with Equation 5.

Test [6] concerns the target (Xenopus laevis) xKremen2-mCherry (Xenopus laevis). Described as above.
Test [7] addresses T3, LRP6-mCherry, transiently expressed in HEK293T cells (human, UniProt O75581 20-1613).
T3 construct: lipoprotein-receptor related protein 6 (LRP6), human; plasmid pCS2+hLRP6-mCherry (Dörlich et al., 2015); Receptor density 370 ± 150 or 1080 ± 470 per µm^2 in the two series; MesD was co-transfected; also called hLRP6-mCherry; lipoprotein-receptor related protein 6; source: HEK293T, transiently transfected (pCS2+hLRP6-mCherry, with MesD 1:6), on live cells; not shown: mCherry, C-terminal, kept
The test can be described thus: dual-color axial line-scanning fluorescence cross-correlation spectroscopy (axial lsFCS); live HEK293T cells transiently expressing the receptor, ligand in conditioned medium at varied concentrations (0.01-220 nM), 37°C, 5% CO2, 60 s scans, fit of Γ(CL) with Equation 5. The conditions noted are these: partners not purified.

The target in test [8] is T1, LRP6-mCherry, stably expressed in …. The experiment in a line: dual-color axial line-scanning fluorescence cross-correlation spectroscopy (axial lsFCS); the same data as a3 (NCI-H1703 stably expressing LRP6-mCherry), analysed without prior background correction of the intensity time traces. The note with it: partners not purified.
Test [9] concerns the target T4, LRP6-mCherry, transiently expressed in NCI-H1703 cells (human, UniProt O75581 20-1613).
T4 construct: lipoprotein-receptor related protein 6 (LRP6), human; plasmid pCS2+hLRP6-mCherry (Dörlich et al., 2015); Same construct as m4 in another cell line; receptor density 140 ± 80 per µm^2; also called hLRP6-mCherry; source: NCI-H1703, transiently transfected (pCS2+hLRP6-mCherry, with MesD 1:6), on live cells; not shown: mCherry, C-terminal, kept
The test can be described thus: dual-color axial line-scanning fluorescence cross-correlation spectroscopy (axial lsFCS); live NCI-H1703 cells transiently expressing the receptor (xKremen2-mCherry without or with unlabeled LRP6; apparent affinity with LRP6), ligand in conditioned medium at varied concentrations, 37°C, 5% CO2, 60 s scans, fit of Γ(CL) with Equation 5. The note with it: partners not purified.

For test [10], the target named is T3, LRP6-mCherry, transiently expressed in …. The test can be described thus: time-lapse spinning disk confocal imaging of ligand fluorescence on the cell membrane; dissociation after two washing steps, frames every 300 s for up to 3 hr, average of 50 cells; kon from a regression of apparent rate coefficients at 3.5 and 7 nM with this koff fixed; 37°C, 5% CO2. The conditions noted are these: partners not purified.

For test [11] the target is unchanged. The experiment in a line: time-lapse spinning disk confocal imaging of ligand fluorescence on the cell membrane; association: HEK293T cells expressing LRP6-mCherry, conditioned medium with DKK1-eGFP at different concentrations, 37°C, 5% CO2, frames every 100 s for 1 hr, linear regression of apparent rate coefficients; the authors call such measurements on individual cells highly unreliable. The conditions noted are these: partners not purified.

Test [12] addresses T5, endogenously tagged LRP6-mCherry in CRISPR/Cas9 edited NCI-H1703 cells (human (endogenous in NCI-H1703), UniProt O75581 20-1613).
T5 construct: lipoprotein-receptor related protein 6 (LRP6), human, expressed from the endogenous locus of NCI-H1703 cells; Untagged LRP6 from the unedited allele is also present; receptor density 18 ± 9 per µm^2; source: NCI-H1703, CRISPR/Cas9 edited at the endogenous LRP6 locus (exon 23), heterozygous clone, on live cells
The experiment in a line: dual-color axial line-scanning fluorescence cross-correlation spectroscopy (axial lsFCS); live CRISPR/Cas9 edited NCI-H1703 cells with endogenously tagged LRP6, ligand in conditioned medium at varied concentrations, 37°C, 5% CO2, 60 s scans, fit of Γ(CL) with Equation 5. The note with it: partners not purified.

The target in test [13] is T6, LRP6-tdTomato, transiently expressed in NCI-H1703 cells (human, UniProt O75581 20-1613).
T6 construct: lipoprotein-receptor related protein 6 (LRP6), human; pCS2+hLRP6-tdTomato, made by replacing the mCherry ORF of pCS2+hLRP6-mCherry; Receptor density 106 ± 52 per µm^2; also called hLRP6-tdTomato; source: NCI-H1703, transiently transfected (pCS2+hLRP6-tdTomato, with MesD 1:6), on live cells; not shown: tdTomato, C-terminal, kept
T6 sequence (O75581 20-1613): as above
The test can be described thus: dual-color axial line-scanning fluorescence cross-correlation spectroscopy (axial lsFCS); live NCI-H1703 cells transiently expressing the receptor (xKremen2-mCherry without or with unlabeled LRP6; apparent affinity with LRP6), ligand in conditioned medium at varied concentrations, 37°C, 5% CO2, 60 s scans, fit of Γ(CL) with Equation 5. The note with it: partners not purified.

T1 sequence (O75581 20-1613): as above
T3 sequence (O75581 20-1613): as above
T5 sequence (O75581 20-1613): as above
T4 sequence (O75581 20-1613): as above
T2 sequence (O75581 20-1613): as above

As for “(Xenopus laevis) xKremen2-eGFP (receptor)”, in test [1], the bound fraction of LRP6 receptors FR, corrected assuming an eGFP maturation yield of 0.9 was 0.26; the bound fraction of xKremen2 receptors FG, corrected assuming an mCherry maturation yield of 0.5 was 0.18; the percent of LRP6 receptors co-diffusing with xKremen2 came out at 25%; the percent of xKremen2 receptors co-diffusing with LRP6 was 15%.

B1: human Dickkopf2 fused to eGFP (DKK2-eGFP) (ligand, UniProt Q9UBU2 34-259, looked up)
chain: KLNSIKSSLGGETPGQAANRSAGMYQGLAFGGSKKGKNLGQAYPCSSDKECEVGRYCHSPHQGSSACMVCRRKKKRCHRDGMCCPSTRCNNGICIPVTESILTPHIPALDGTRHRDRNHGHYSNHDLGWQNLGRPHTKMSHIKGHEGDPCLRSSDCIEGFCCARHFWTKICKPVLHQGEVCTKQRKKGSHGLEIFQRCDCAKGLSCKVWKDATYSSKARLHVCQKI
notes: Dickkopf2 (DKK2), human; also called hDKK2-eGFP
Regarding B1, the Kd in test [2] stood at 0.26 ± 0.04 nM.

B2: human Dickkopf1 fused to eGFP (DKK1-eGFP) (ligand, UniProt O94907 32-266, looked up)
chain: TLNSVLNSNAIKNLPPPLGGAAGHPGSAVSAAPGILYPGGNKYQTIDNYQPYPCAEDEECGTDEYCASPTRGGDAGVQICLACRKRRKRCMRHAMCCPGNYCKNGICVSSDQNHFRGEIEETITESFGNDHSTLDGYSRRTTLSSKMYHTKGQEGSVCLRSSDCASGLCCARHFWSKICKPVLKEGQVCTKHRRKGSHGLEIFQRCYCGEGLSCRIQKDHHQASNSSRLHTCQRH
notes: Dickkopf1 (DKK1), human; also called hDKK1-eGFP
Take B2: the Kd in test [3] amounted to 0.1 ± 0.02 nM; in test [4], 0.08 ± 0.01 nM; in [5] it was 0.54 nM; in test [6], 10.3 nM; in [7] it was 0.49 ± 0.09 nM; in [8], 0.1 ± 0.02 nM. In addition, the Kd in test [9] stood at 0.22 ± 0.02 nM; in [10] it was 0.4 ± 0.1 nM; in test [11] it was 2.6 ± 0.1 nM; in test [12] it was 0.09 ± 0.01 nM; in test [13], 0.22 ± 0.03 nM. Also, the koff came out at 0.00026 s⁻¹ in [10] and 0.0013 s⁻¹ in [11]. Moreover, the kon stood at 670000 M⁻¹ s⁻¹ in test [10] and 500000 M⁻¹ s⁻¹ in test [11].

B3: human Dickkopf1 fused to eGFP and a SNAP-tag domain (DKK1-eGFP-SNAP) (ligand, UniProt O94907 32-266, looked up)
chain: B2 chain
notes: Dickkopf1 (DKK1), human; made from pCS2+hDKK1-eGFP by adding a linker and the SNAP-tag gene; SNAP-tag domain is 19.4 kDa; also called hDKK1-eGFP-SNAP; source: conditioned medium
As for B3, the Kd in test [7] stood at 0.46 ± 0.09 nM.
